The record followed here is a protein production outcome set (Wang et al. 2014).

The nature of this data set: label from the status in PepcDB records.
On to “MGHHHHHHSHMATGQDRVVALVDMDCFFVQVEQRQNPHLRNKPCAVVQYKSWKGGGIIAVSYEARAFGVTRSMWADDAKKLCPDLLLAQVRESRGKANLTKYREASVEVMEIMSRFAVIERASIDEAYVDLTSAVQERLQKLQGQPISADLLPSTYIEGLPQGPTTAEETVQKEGMRKQGLFQWLDSLQIDNLTSPDLQLTVGAVIVEEMRAAIERETGFQCSAGISHNKVLAKLACGLNKPNRQTLVSHGSVPQLFSQMPIRKIRSLGGKLGASVIEILGIEYMGELTQFTESQLQSHFGEKNGSWLYAMCRGIEHDPVKPRQLPKTIGCSKNFPGKTALATREQVQWWLLQLAQELEERLTKDRNDNDRVATQLVVSIRVQGDKRLSSLRRCCALTRYDAHKMSHDAFTVIKNCNTSGIQTEWSPPLTMLFLCATKFSASAP”, for which the protein production result was “failed”.
Turning to “MGHHHHHHSHMDEQSVESIAEVFRCFICMEKLRDARLCPHCSKLCCFSCIRRWLTEQRAQCPHCRAPLQLRELVNCRWAEEVTQQLDTLQLCSLTKHEEN”, the protein production entry was “not failed”.
In the case of “MGHHHHHHSHMGEIESYCNKELGPLPTKAPTLSKNVLDLFSLKGKVASVTGSSGGIGWAVAEAYAQAGADVAIWYNSHPADEKAEHLQKTYGVHSKAYKCNISDPKSVEETISQQEKDFGTIDVFVANAGVTWTQGPEIDVDNYDSWNKIISVDLNGVYYCSHNIGKIFKKNGKGSLIITSSISGKIVNIPQLQAPYNTAKAACTHLAKSLAIEWAPFARVNTISPGYIDTDITDFASKDMKAKWWQLTPLGREGLTQELVGGYLYLASNASTFTTGSDVVIDGGYTCP”, the protein production result is listed as “failed”.
Next, “MGHHHHHHSHMGKKLLVLDVDYTLFDHRSCAETGVELMRPYLHEFLTSAYEDYDIVIWSATNMKWIEAKMKELGVSTNANYKITFMLDSAAMITVHTPRRGLIDVKPLGVIWGKFSEFYSKKNTIMFDDIGRNFLMNPQNGLKIRPFMKAHLNRDKDKELLKLTQYLKEIAKLDDFLDLNHKY”: “failed”; “MGHHHHHHSHMGRCYNNIVIDASIEAVWQQIGNFHDMSWAKGVITSLVKVGPASGTEVGAKRILNDAIHETLVSLDSSNYTFTYSIDDGPDAIAKSAVDNYLGMVNLSESSTGVLVEWSSSFTSDNEKAVTEFCDP”: “failed”.
With “MGHHHHHHSHMIDSIRVEGFRGLKELELSSLRRINVIVGRNNSGKSTLLEALSLFLGSSDPGTFGNVLHEILIWRGWYGIQTVDDLFYNGGDSFSISSTGKTLEALNSKHSLEFKLNGEPFYKIDRESIRRLASQAVLLARFSPKENFEFLTPLTFRRFGYAESLYSYAYERKVVKDSIKVLNEAYPEVEGFSPLLKEDNWVLYVETKYGVYPYYLMGEGFKSAMIISFLSSLLRDGVLLIDSAEAFHHP”, the protein production result is reported as “failed”.
Next, “MGHHHHHHSHMIESGIWSRMSEMIRSSGHSHHCSPQEYRFLPPVGDDDLPGDLQSLSWLTAVDVPRLQQMANGRIDLGSSGVTHPHPGALAGTADLHVGAAPRPLLRRSQTAVVPRGVLGLSPIGNHRASAEQMNQFPAGGQASSGLQEMPQLYSPATQIPFPLPLGSQQCPPAGLYGSPFSARPSYPQAHGAMHASQEPHPKHYPKPIYSYSCLIAMALKNSKTGSLPVSEIYSFMKEHFPYFKTAPDGWKNSVRHNLSLNKCFEKVETKSSGSSRKGCLWALNLARIDKMEEEMHKWKRKDLAAIHRSMANPEELDKLISDRPESCRRPGKRGEPKAPMLTHATTVAMAHSCLAISQLPPKPLMTLSLQSVPLHHQLQPQAHLAPDSPAPAQTPPLHALPSLSPGPLPQPAMGRVPGDFLNINSDMNTEVDALDPSIMDFALQGNLWEEMKEDSFSLDTLEAFGDSPLGCDLGAPSLTPVSGNSDQSFPDVQVTGLYAAYSTAADGVAPSAANSAQYLGTPGNKPIALL”: “failed”; “MGHHHHHHSHMKPSGEDQAALAAGPWEECFQAAVQLALRAGQIIRKALTEEKRVSTKTSAADLVTETDHLVEDLIISELRERFPSHRFIAEEAAASGAKCVLTHSPTWIIDPIDGTCNFVHRFPTVAVSIGFAVRQELEFGVIYHCTEERLYTGRRGRGAFCNGQRLRVSGETDLSKALVLTEIGPKRDPATLKLFLSNMERLLHAKAHGVRVIGSSTLALCHLASGAADAYYQFGLHCWDLAAATVIIREAGGIVIDTSGGPLDLMACRVVAASTREMAMLIAQALQTINYGRDDEK”: “failed”; “MGHHHHHHSHMQDRRSVCIFLPNDESLNIIINVKILCHQLLVQVCDLLRLKDCHLFGLSVIQNNEHVYME”: “not failed”.
The value for “MGHHHHHHSHMSFVECPYHSPAERLVAEADEGGPSAITGMGLCFRCLLFSFSGRSGVEGGRVDLNVFGSLGLQPWIGSSRCWGGPCSSALRCGWFSSWPPPSKSAIPIGGGSRGAGRVSRWPPPHWLEAWRVSPRPL” was “failed”.
Regarding “MGHHHHHHSHMSIPSSQYGFVFNKQSGLKLRNDLPVHKPKAGQLLLKVDAVGLCHSDLHVIYEGLDCGDNYVMGHEIAGTVAAVGDDVINYKVGDRVACVGPNGCGGCKYCRGAIDNVCKNAFGDWFGLGYDGGYQQYLLVTRPRNLSRIPDNVSADVAAASTDAVLTPYHAIKMAQVSPTSNILLIGAGGLGGNAIQVAKAFGAKVTVLDKKKEARDQAKKLGADAVYETLPESISPGSFSACFDFVSVQATFDVCQKYVEPKGVIMPVGLGAPNLSFNLGDLALREIRILGSFWGTTNDLDDVLKLVSEGKVKPVVRSAKLKELPEYIEKLRNNAYEGRVVFNP”, the protein production result is listed as “not failed”.
On to “MGHHHHHHSHMTDCEFGYIYRLAQDYLQCVLQIPQPGSGPSKTSRVLQNVAFSVQKEVEKNLKSCLDNVNVVSVDTARTLFNQVMEKEFEDGIINWGRIVTIFAFEGILIKKLLRQQIAPDVDTYKEISYFVAEFIMNNTGEWIRQNGGWENGFVKKFEPK”, for which the protein production entry is on record as “not failed”.
Next, “MGHHHHHHSHMVLSQNTKRESGRKVQSGNINAAKTIADIIRTCLGPKSMMKMLLDPMGGIVMTNDGNAILREIQVQHPAAKSMIEISRTQDEEVGDGTTSVIILAGEMLSVAEHFLEQQMHPTVVISAYRKALDDMISTLKKISIPVDISDSDMMLNIINSSITTKAISRWSSLACNIALDAVKMVQFEENGRKEIDIKKYARVEKIPGGIIEDSCVLRGVMINKDVTHPRMRRYIKNPRIVLLDSSLEYKKGESQTDIEITREEDFTRILQMEEEYIQQLCEDIIQLKPDVVITEKGISDLAQHYLMRANITAIRRVRKTDNNRIARACGARIVSRPEELREDDVGTGAGLLEIKKIGDEYFTFITDCKDPKACTILLRGASKEILSEVERNLQDAMQVCRNVLLDPQLVPGGGASEMAVAHALTEKSKAMTGVEQWPYRAVAQALEVIPRTLIQNCGASTIRLLTSLRAKHTQENCETWGVNGETGTLVDMKELGIWEPLAVKLQTYKTAVETAVLLLRIDDIVSGHKKKGDDQSRQGGAPDAGQE”: “failed”; “MGHHHHHHSHMVSDIRRFLSAFHEPQVGLIQAAQQLLCDEQAPQRQRLLADLLHNVSQNIAAETRAEDPPWFEGLESRFQSKSGYLRYSCESRIRSYLREVSSYPSTVGAEAQEEFLRVLGSMCQRLRSMQYNGSYFDRGAKGGSRLCTPEGWFSCQGPFDMDSCLSRHSINPYSNRESRILFSTWNLDHIIEKKRTIIPTLVEAIKEQDGREVDWEYFYGLLFTSENLKLVHIVCHKKTTHKLNCDPSRIYKPQTRLKRKQPVRKRQ”: “failed”; “MGHHHHHHSHPQSAAKPGLHFIDQHRAALIARVTNVEWLLDALYGKVLTDEQYQAVRAEPTNPSKMRKLFSFTPAWNWTCKDLLLQALRESQSYLVEDLERS”: “failed”.
Next, “MGHHHHHHSHTGKTTFSATIHALEGGVVADCDVDAPNLHILLKPQILKAEDFIASKKARIMPEKCSSCGLCYDLCRFGAVVAEDGYYVDEKKCEGCAFCFNVCPERAIEMENVKTGDLYVSKTEWGYFVHARLKPGEENTGRLVTEVKNRAKEIAEESNAEFLIVDSAPGVGCPVMASLTGVDAAIIVTEPTVSGLSDMLRILELCEHFRIRPFVVVNKFDLNVNIASEIESYCSENGVEFAGRVPFDKAIPEQIANLNFPFSGKAADKMVEIWKKLRE”: “not failed”.
